Assay results from US20190119348A1, “PARATHYROID HORMONE RECEPTOR 1 ANTAGONIST AND INVERSE AGONIST POLYPEPTIDES AND METHODS OF THEIR USE” (The General Hospital Corporation, priority 2016, published 2019).
Numbering of substitutions follows the chain as printed. Where a SMILES comes first, the peptide text is derived from it. Where no end group is shown, it is not given here. [ ]: non-standard residue; d: D form. Nle = CCCC[C@H](N)C(=O)O

Assays:
[1] = molecular target: human parathyroid hormone receptor 1 (hPTHR1) (human) (UniProt Q03431); test: cell-based or functional assay
hPTHR1-H223R (human) = hPTHR1-H223R (human) (UniProt Q03431); test: cell-based or functional assay
human PTHR1-H223R = molecular target: T1, human PTHR1-H223R (Homo sapiens, UniProt Q03431, H223R); test: Inverse agonism on basal cAMP signaling in GHR-10 cells; assay type: cell-based; conditions: GHR-10 cells, from AUC, representative experiment
T1 construct: expressed in transfected cells; host or cells: GHR-10 (HEK-293 stably expressing GloSensor and PTHR1-H223R)
T1 sequence (Q03431 27-593 H223R): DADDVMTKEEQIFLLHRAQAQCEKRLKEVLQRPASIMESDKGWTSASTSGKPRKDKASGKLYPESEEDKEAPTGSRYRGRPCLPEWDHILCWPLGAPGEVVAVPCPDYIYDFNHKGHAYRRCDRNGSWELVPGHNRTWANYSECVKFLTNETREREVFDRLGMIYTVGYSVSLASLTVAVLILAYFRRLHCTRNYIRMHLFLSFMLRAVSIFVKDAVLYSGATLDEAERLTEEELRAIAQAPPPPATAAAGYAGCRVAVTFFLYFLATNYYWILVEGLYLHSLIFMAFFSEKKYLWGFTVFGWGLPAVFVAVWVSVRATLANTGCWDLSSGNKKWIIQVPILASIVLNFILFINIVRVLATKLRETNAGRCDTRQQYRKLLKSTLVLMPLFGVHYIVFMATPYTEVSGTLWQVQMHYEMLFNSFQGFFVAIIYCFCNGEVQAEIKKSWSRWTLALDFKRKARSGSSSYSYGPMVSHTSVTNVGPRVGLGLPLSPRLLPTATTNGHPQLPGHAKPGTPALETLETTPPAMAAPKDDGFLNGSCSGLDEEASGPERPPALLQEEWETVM
Description: cAMP signaling was assessed in the HEK293-derived or SaOS2-derived cell lines stably expressing the luciferase-based GloSensor™ cAMP reporter (Hattersley et al., Paper presented at: Novel Signaling Mechanisms and Bone Cell Biology 2014; Binkowski et al., Methods in molecular biology. 756:263-271). HEK-293 cells were further transfected to stably express the hPTHR1, hPTHR1-H223R, or hPTHR1-T410P. The cells were seeded into 96-well white plates and were assayed 24 to 48 hours post-confluency. Assays were performed at room temperature in CO2-independent culture media (Life Technologies, Corp., Carlsbad, Calif.) containing 0.1% BSA (CIDB). The cells were pre-loaded with luciferin (0.5 mM in CIDB) for 15 minutes, then PTH peptides were added at varying concentrations. cAMP-dependent luminescence was measured at two-minute intervals using a PerkinElmer Envision plate reader. The time at which maximum luminescence (cps) observed with agonist alone, typically at 10-20 minutes after agonist addition, was used to obtain data from wells containing antagonist with or without agonist, to thus generate antagonist ligand dose-response curves. The resulting cps values were then plotted against ligand concentration using GraphPad Prism 7.0 software and a four-parameter logistics curve fitting equation, which yielded parameters of inhibitory potency (pIC50).
These experiments were performed in HEK-293 cells stably transfected to express the GloSensor™ cAMP reporter along with a constitutively active mutant human PTHR1. The HEK-293 cells stably expressing GloSensor™ cAMP reporter along with a constitutively active mutant human PTHR1-H223R are GHR-10 cells. The HEK-293 cells stably expressing GloSensor™ cAMP reporter along with a constitutively active mutant human PTHR1-T410P are GTP-4 cells. The HEK-293 cells stably expressing GloSensor™ cAMP reporter along with a WT-PTHR1 are GP-2.3 cells. GP-2.3 cells were used as control. […] Effects on basal cAMP signaling over time were assessed during periods of direct ligand addition (FIGS. 15A-15F). The measurements were performed by recording GloSensor™ luminescence as counts per second (cps) using a PerkinElmer Envision plate reader. The data are illustrated in FIGS. 15A-15F. Data are from triplicate wells (means±SEM) of a single experiment representative of two others.
Persistence of the antagonist/inverse agonist effects (prolonged action) as follows. Effects of eight peptides on basal and PTH(1-34)-stimulated cAMP signaling by PTHR-H223R were assessed in GHR-10 cells (HEK-293-derived cells stably expressing glosensor cAMP reporter and PTHR1-H223R). Time courses of changes in cAMP levels were recorded in three consecutive phases:
1) after initial addition of a candidate antagonist/inverse agonist (1×10^−6 M-1×10^−9 M) to cells pre-loaded for […] with luciferin (left column);
2) after removal of unbound inverse agonist by extensive wash-out with buffer and replenishment with fresh luciferin-containing buffer (middle column); and
Control wells were treated with vehicle. GloSensor™ luminescence, as counts per second (cps), was recorded using a PerkinElmer Envision plate reader. Data are from duplicate wells (means±SEM) of a single experiment representative of two others. The results are illustrated in Table 7 and in FIGS. 16A-16C, 17A-17C, 18A-18C, 19A-19C, 20A-20C, 21A-21C, 22A-22C, and 23A-23C.
GHR10 cells were treated with vehicle or vehicle containing the indicated peptide for 24 minutes and cAMP-dependent luminescence was recorded at two-minute intervals. The cells were then washed to remove unbound ligand and media containing fresh luciferin was added, and cAMP luminescence was recorded for another 26 minutes. Percentage reduction was calculated from the area-under-the-curve (AUC) values derived from the time course plots using the equation: […]

endogenous hPTHR1 = molecular target: T2, endogenous hPTHR1 (Homo sapiens, UniProt Q03431); test: Antagonism of PTH(1-34)- and PTHrP(1-36)-induced cAMP response (GloSensor) in SGS-72 cells; assay type: cell-based; conditions: IC50 PTH(1-34) (Table 6, nanomolar value), antagonist pre-treatment 15 minutes, PTH(1-34) 0.3 nM
T2 construct: Saos-2, in which is endogenously expressed the hPTHR1; endogenous in cells
T2 sequence (Q03431 27-593): T1 sequence (Q03431 27-593 H223R) with R197H
Description: cAMP signaling was assessed in the HEK293-derived or SaOS2-derived cell lines stably expressing the luciferase-based GloSensorTM cAMP reporter ([…] al., Paper presented at: Novel Signaling Mechanisms and Bone Cell Biology 2014; Binkowski et al., Methods in molecular biology. 756:263-271). HEK-293 cells were further transfected to stably express the hPTHR1, hPTHR1-H223R, or hPTHR1-T410P. The cells were seeded into 96-well white plates and were assayed 24 to 48 hours post-confluency. Assays were performed at room temperature in CO2-independent culture media (Life Technologies, Corp., Carlsbad, Calif.) containing 0.1% BSA (CIDB). The cells were pre-loaded with luciferin (0.5 mM in CIDB) for 15 minutes, then PTH peptides were added at varying concentrations. cAMP-dependent luminescence was measured at two-minute intervals using a PerkinElmer Envision plate reader. The time at which maximum luminescence (cps) observed with agonist alone, typically at 10-20 minutes after agonist addition, was used to obtain data from wells containing antagonist with or without agonist, to thus generate antagonist ligand dose-response curves. The resulting cps values were then plotted against ligand concentration using GraphPad Prism 7.0 software and a four-parameter logistics curve fitting equation, which yielded parameters of inhibitory potency (pIC50). Pharmacological properties of the ligands were assessed in cells expressing the PTHR1 and the GloSensorTM cAMP reporter. The assays used GP-2.3 cells, derived from HEK293 cells by stable transfection with the hPTHR1 and GloSensorTM, as well as SGS-72 cells, which are derived from the human osteosarcoma cell line, Saos-2, in which is endogenously expressed the hPTHR1, by stable transfection with GloSensorTM. Binding of representative polypeptides to the PTHR1 was assessed in GP-2.3 cells by radioligand competition methods (FIGS. 1A and 1B, Table 3). […] In Table 5, antagonist assays were performed in SGS-72 cells (SaOS2 cells with stable GloSensorTM cAMP reporter) at room temperature. […] The mean (±sem) concentration of antagonist that inhibited the maximum agonist-induced response observed in the absence of antagonist (at 40 minutes) is reported in units of -log M (pIC50), and the corresponding nanomolar value is shown below each pIC50 value. Data are means of the number of seven experiments. The PTH(1-34)-induced maximum luminescence was 500,000 cps and the basal was 5,000 cps. TMR indicates Lys13 modified at epsilon amino function with TMR. The data are illustrated in FIG. 7A. […] Date are means (±SEM) of the number of separate experiments indicated by n.

| IC50, antagonism of PTH(1-34) (0.3 nM)-induced cAMP response, SGS-72 cells [1] [nM] | pIC50, antagonism of PTH(1-34) (0.3 nM)-induced cAMP response, SGS-72 cells [1] | Reduction of basal cAMP, % vehicle; After ligand washout; GHR-10 cells (hPTHR1-H223R (human)) [% vehicle] | Reduction of basal cAMP, % vehicle; Ligand @ -6M; GHR-10 cells (hPTHR1-H223R (human)) [% vehicle] | Reduction of basal cAMP, % vehicle, After ligand washout (human PTHR1-H223R; 26 minutes after washout of unbound ligand) [% vehicle] | Reduction of basal cAMP, % vehicle, Ligand @ −6M (human PTHR1-H223R; peptide 1×10^−6 M for 24 minutes) [% vehicle] | IC50 (endogenous hPTHR1) [nM] | Compound |
| --- | --- | --- | --- | --- | --- | --- | --- |
| 2.1 | 8.68 -log M | 71 | 70 | – | – | – | Nle8, L11, dW12, W23-LA-PTH(7-36)-1997 (peptide) |
| 2.75 | 8.56 -log M | 62 | 63 | – | – | – | Nle8, L11, dW12, W23-LA-PTH(5-36)-1999 (peptide) |
| 1.23 | 8.91 -log M | 39 | 50 | – | – | – | dW12, W23-LA-PTH(7-36)-1990 (peptide) |
| 2.08 | 8.68 -log M | 65 | 66 | – | – | – | L11, dW12, W23-LA-PTH(7-36)-2001 (peptide) |
| 2.57 | 8.59 -log M | 64 | 66 | – | – | – | L11, dW12, W23-LA-PTH(5-36)-2003 (peptide) |
| – | – | – | – | −49 | −15 | – | LA-PTH(5-36)-2012 (IQLMHQRAKWIQDARRRAFLHKLIAEIHTAEI-NH2) [compound 2012] |
| 1.55 | 8.81 -log M | 40 | 51 | – | – | – | Nle8, dW12, W23-LA-PTH(7-36)-1992 (peptide) |
| – | – | – | – | – | – | 1.75 | CCCC[C@H](NC(=O)[C@H](CC(C)C)NC(=O)[C@H](CCC(N)=O)NC(=O)[C@@H](N)[C@@H](C)CC)C(=O)N[C@@H](Cc1c[nH]cn1)C(=O)N[C@@H](CCC(N)=O)C(=O)N[C@@H](CCCNC(=N)N)C(=O)N[C@H](Cc1c[nH]c2ccccc12)C(=O)N[C@@H](CCCCN)C(=O)N[C@@H](Cc1c[nH]c2ccccc12)C(=O)N[C@H](C(=O)N[C@@H](CCC(N)=O)C(=O)N[C@@H](CC(=O)O)C(=O)N[C@@H](C)C(=O)N[C@@H](CCCNC(=N)N)C(=O)N[C@@H](CCCNC(=N)N)C(=O)N[C@@H](CCCNC(=N)N)C(=O)N[C@@H](C)C(=O)N[C@@H](Cc1c[nH]c2ccccc12)C(=O)N[C@@H](CC(C)C)C(=O)N[C@@H](Cc1c[nH]cn1)C(=O)N[C@@H](CCCCN)C(=O)N[C@@H](CC(C)C)C(=O)N[C@H](C(=O)N[C@@H](C)C(=O)N[C@@H](CCC(=O)O)C(=O)N[C@H](C(=O)N[C@@H](Cc1c[nH]cn1)C(=O)N[C@H](C(=O)N[C@@H](C)C(=O)N[C@@H](CCC(=O)O)C(=O)N[C@@H](Cc1ccc(O)cc1)C(N)=O)[C@@H](C)O)[C@@H](C)CC)[C@@H](C)CC)[C@@H](C)CC [compound 1954, Nle8, dW12, W23, Y36-LA-PTH(5-36)] (H-IQL[Nle]HQR[dW]KWIQDARRRAWLHKLIAEIHTAEY-NH2; N-terminus assumed) |
